According to paper PMC11724288:

Assays:
[1] = target: TFIIICΔtail complex (S. cerevisiae TFIIIC with τ95 truncated at residue 593) (S. cerevisiae) (UniProt P34111); test: cryo-EM structure; τB–DNA dimer classes of dataset 1 (2 μM TFIIICΔtail with equimolar 85-bp tRNA^His DNA, 200 mM KCl); map with preferred orientation, no model deposited
[2] = target: TFIIICΔtail complex (S. cerevisiae TFIIIC with τ95 truncated at residue 593) (S. cerevisiae) (UniProt P34111); test: mass photometry; TFIIICΔtail at 50 and 100 nM, with and without 85- and 120-bp tRNA^His DNA; 20 mM HEPES pH 8, 100 mM KCl, 2 mM MgCl2, 5 mM DTT

stoichiometry N [1]: 2 | stoichiometry N [2]: 2
Substance: TFIIICΔtail complex (S. cerevisiae TFIIIC with τ95 truncated at residue 593), P34111 1-1160; P33339 1-1025; P32367 1-593; Q06339 1-672; Q12308 1-588; Q12415 1-435
